Experimental data: patent US20240251767A1

Biological target: Spike protein of the COVID-19 Spike-ACE2 Binding Assay Kit (Raybiotech) (SARS-CoV2) (UniProt P0DTC2)

Substance: human SAT Nb-Fc control VH-Ab-8 (HAb8-S) (Fc fusion)
- IC50: 0.079 nM
